Measured values reported in paper PMC5074521, “Dom34 Links Translation to Protein O-mannosylation”.

B1: PMT1 5'-UTR RNA (full) (structured_RNA)
RNA: GGCAAGAUUCUUUUUCAAGAUUUUUCAUUUUUACAACAACAACAACAACCACCACAACCACAACUAUAAACAAUUGAUAUAGCAUUAUCUUUUAAGAUUAUUGAAUAAAGGUCAAUUUAUAGCGCCCCCCCUCACUCCACCUCCUACCGUCUUUCUUUCACGCAACUAAAACAAAUUUUUAUAUUUUUAUUUUUAUUUUUAUUUUAGUUUCCCAUUCAAUAGAUC
B2: PMT1 5'-UTR RNA oligonucleotide (ssRNA)
RNA: ACAACAACAACAACAACCACCACAACCACAACUAUAAACAAU

Experiments:
Dom34 E21A [1] = biological target: T1, Dom34 E21A (Candida albicans, UniProt A0A1D8PSD0 1-393, E21A); test: EMSA; heparin challenge 50 ng/ul; apparent KD; UTR/6S EMSA: 10 mM Tris-HCl pH 8.0, 100 mM NaCl, 30 C 10 min, then heparin 50 ng/ul 10 min, native 5% PAGE (legend 6%); oligo EMSA: LightShift RNA EMSA kit, room temperature 20 min; footprint: RNase 1 min at 37 C; conditions: protein: recombinant; tags: C-terminal His6; label: 3'-32P-pCp; single strand with predicted paired regions
Dom34 [2] = biological target: T2, Dom34 (Candida albicans, UniProt A0A1D8PSD0 1-393); test: EMSA; heparin challenge; binding visible above 0.3 uM, no free RNA at 2.5 uM (bound or degraded); lower affinity than E21A; UTR/6S EMSA: 10 mM Tris-HCl pH 8.0, 100 mM NaCl, 30 C 10 min, then heparin 50 ng/ul 10 min, native 5% PAGE (legend 6%); oligo EMSA: LightShift RNA EMSA kit, room temperature 20 min; footprint: RNase 1 min at 37 C; conditions: protein: recombinant; tags: C-terminal His6; label: 3'-32P-pCp; single strand with predicted paired regions
Dom34 N317A = Dom34 N317A (Candida albicans, UniProt A0A1D8PSD0 1-393, N317A); test: EMSA; 400 nM protein, 20 nM RNA; as wild type; UTR/6S EMSA: 10 mM Tris-HCl pH 8.0, 100 mM NaCl, 30 C 10 min, then heparin 50 ng/ul 10 min, native 5% PAGE (legend 6%); oligo EMSA: LightShift RNA EMSA kit, room temperature 20 min; footprint: RNase 1 min at 37 C; conditions: protein: recombinant; tags: C-terminal His6; label: 3'-biotin; single strand
Dom34 E21A [3] = biological target: T1, Dom34 E21A; test: EMSA; 400 nM protein, 20 nM RNA; enhanced vs wild type; UTR/6S EMSA: 10 mM Tris-HCl pH 8.0, 100 mM NaCl, 30 C 10 min, then heparin 50 ng/ul 10 min, native 5% PAGE (legend 6%); oligo EMSA: LightShift RNA EMSA kit, room temperature 20 min; footprint: RNase 1 min at 37 C; conditions: protein: recombinant; tags: C-terminal His6; label: 3'-biotin; single strand
Dom34 [4] = biological target: T2, Dom34; test: EMSA; 400 nM protein, 20 nM RNA; complex I, plus II with 0.05% lauryl sarcosinate; UTR/6S EMSA: 10 mM Tris-HCl pH 8.0, 100 mM NaCl, 30 C 10 min, then heparin 50 ng/ul 10 min, native 5% PAGE (legend 6%); oligo EMSA: LightShift RNA EMSA kit, room temperature 20 min; footprint: RNase 1 min at 37 C; conditions: protein: recombinant; tags: C-terminal His6; label: 3'-biotin; single strand

Row | Binder | Kd (Dom34 E21A [1]) [nM] | binding result (Dom34 [2]) | binding result (Dom34 N317A) | binding result (Dom34 E21A [3]) | binding result (Dom34 [4])
1 | B1 | ~100 | binds | – | – | –
2 | B2 | – | – | binds | binds | binds
